The supplement of paper PMC7877785
± gives the uncertainty stated by the source.

Experiment: self-splicing fitness, log relative to wild type (ln ratio); higher = more splicing; Tetrahymena group I intron in knt gene, E. coli kanamycin selection, DiMSum; sequences stand for … in CUCUCU…GGAGGGAAAAGUUAUCAGGCAUGCACCUGGUAGCUAGUCUUUAAACCAAUAGAUUGCAUCGGUUUAAAAGGCAAGACCGUCAAAUUGCGGGAAAGGGGUCAACAGCCGUUCAGUACCAAGUCUCAGGGGAAACUUUGAGAUGGCCUUGCAAAGGGUAUGGUAAUAAGCUGACGGACAUGGUCCUAACCACGCAGCCAAGUCCUAAGUCAACAGAUCUUCUGUUGAUAUGGAUGCAGUUCACAGACUAAAUGUCGGUCGGGGAAGAUGUAUUCUUCUCAUAAGAUAUAGUCGGACCUCUCCUUAAUGGGAGCUAGCGGAUGAAGUGAUGCAACACUGGAGCCGCUGGGAACUAAUUUGUAUGCGAAAGUAUAUUGAUUAGUUUUGGAGUACUCGUGGUCG
Procedure, shortened: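 Fitness was computed with DiMSum as the error-weighted combination of replicate fold changes, kanamycin versus none, each normalised to wild type. The library randomised all eight intron nucleotides of the P1ex region, with the intron placed in the knt kanamycin-resistance gene on pET-22b(+) in E. coli BL21(DE3). Six replicate transformations were grown overnight at 37°C or 30°C on LB agar with or without 25 μg/mL kanamycin, plus 100 μg/mL carbenicillin, 50 μM IPTG and 0.2% rhamnose. Pooled colonies were amplicon-sequenced on an Illumina HiSeq 2500.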

| Sequence | self-splicing fitness (ln) (30 °C) | self-splicing fitness (ln) (37 °C) |
| --- | --- | --- |
| GGAAAGCAAUAUUACGAAUG | -3.53 ± 0.29 | -0.816 ± 0.25 |
| CAGCAGCAAUAUUACGCGAG | -2.74 ± 0.15 | -1.7 ± 0.15 |
| ACGAAGCAAUAUUACGGGCA | -1.46 ± 0.068 | -0.631 ± 0.075 |
| UCAAAGCAAUAUUACGAGCC | -2.27 ± 0.23 |  |
| AUAGAGCAAUAUUACGAGCU | -1.71 ± 0.18 | -1.15 ± 0.16 |
| GGUGAGCAAUAUUACGUCGU | -2.57 ± 0.15 | -1.91 ± 0.2 |
| AACCAGCAAUAUUACGUCGU | -1.26 ± 0.046 | -0.25 ± 0.058 |
| AUGUAGCAAUAUUACGUACG | -1.41 ± 0.1 | -0.212 ± 0.13 |
| CGGAAGCAAUAUUACGAUGU | -2.72 ± 0.19 | -0.735 ± 0.14 |
| CACCAGCAAUAUUACGCAAU | -4.25 ± 0.18 | -4.19 ± 0.16 |
| AAUCAGCAAUAUUACGCGCG | 0.0814 ± 0.079 | -0.098 ± 0.1 |
| UGAAAGCAAUAUUACGUACA | -0.776 ± 0.044 | 0.0429 ± 0.066 |
| AUCUAGCAAUAUUACGAAAG | -3.62 ± 0.27 | -2.15 ± 0.24 |
| CAUUAGCAAUAUUACGGUCU | -3.48 ± 0.31 | -2.22 ± 0.29 |
| CAUUAGCAAUAUUACGCCGA | -2.32 ± 0.19 | -2.18 ± 0.2 |
| CCGGAGCAAUAUUACGAGCU | -2.94 ± 0.35 | -1.84 ± 0.49 |
| CCUCAGCAAUAUUACGGCUU | -1.94 ± 0.16 | -2.28 ± 0.21 |
| GGUCAGCAAUAUUACGAAUG | -0.0371 ± 0.078 | -0.989 ± 0.1 |
| UUUUAGCAAUAUUACGUGUC | -2.93 ± 0.3 | -2.26 ± 0.38 |
| GCAGAGCAAUAUUACGCCGG | -2.85 ± 0.45 | -0.641 ± 0.35 |

| Sequence | self-splicing fitness (ln) (30 °C) | self-splicing fitness (ln) (37 °C) |
| --- | --- | --- |
| AAGUAGCAAUAUUACGUCUG | -0.515 ± 0.086 | 0.168 ± 0.11 |
| CUUCAGCAAUAUUACGGGCG | -0.584 ± 0.076 | -0.302 ± 0.098 |
| ACUCAGCAAUAUUACGACGU | -0.498 ± 0.063 | 0.168 ± 0.082 |
| UGUAAGCAAUAUUACGUUUA | -0.814 ± 0.16 | -1.51 ± 0.14 |
| AGUGAGCAAUAUUACGCGGA | -2.28 ± 0.3 | -1.99 ± 0.23 |
| AUACAGCAAUAUUACGGUGG | -2.95 ± 0.11 | -2.92 ± 0.15 |
| UUCAAGCAAUAUUACGUAAG | -1.89 ± 0.074 | -0.866 ± 0.077 |
| CCGAAGCAAUAUUACGUAAG | -0.257 ± 0.055 | 0.2 ± 0.073 |
| AAUUAGCAAUAUUACGUUCC | -3 ± 0.22 | -1.32 ± 0.21 |
| GGCCAGCAAUAUUACGGUUG | -0.224 ± 0.062 | -0.166 ± 0.075 |
| AGCAAGCAAUAUUACGAGCC | -1.65 ± 0.37 |  |
| UUUAAGCAAUAUUACGCUCG | -0.577 ± 0.095 | 0.0454 ± 0.11 |
| UUCCAGCAAUAUUACGGCUA | 0.12 ± 0.12 | -0.25 ± 0.1 |
| AAGUAGCAAUAUUACGGCGC | -0.0482 ± 0.11 | 0.221 ± 0.14 |
| CGACAGCAAUAUUACGCGGC | -3.55 ± 0.16 | -2.96 ± 0.26 |
| UAAGAGCAAUAUUACGGUGG | -4.17 ± 0.33 | -2.36 ± 0.26 |
| UCCUAGCAAUAUUACGUCAA |  | -1.52 ± 0.39 |
| UUCUAGCAAUAUUACGCACC | -2.54 ± 0.18 | -1.94 ± 0.23 |
| CUAUAGCAAUAUUACGCGCC | -1.01 ± 0.43 |  |
